# B1: Pseudomonas aeruginosa dihydropyrimidinase (enzyme)
# chain: MSLLIRGATVVTHEESYRADVLCANGLIQAIGENLETPSGCDVLDGGGQYLMPGGIDPHTHMQLPFMGTVASEDFFSGTAAGLAGGTTSIIDFVIPNPRQSLLEAFHTWRGWAQKSAADYGFHVAITWWSDEVAREMGELVAQHGVNSFKHFMAYKNAIMAADDTLVASFERCLELGAVPTVHAENGELVFHLQQKLLAQGLTGPEAHPLSRPPQVEGEAASRAIRIAETLGTPLYLVHISSREALDEIAYARAKGQPVYGEVLAGHLLLDDSVYRHPDWATAAGYVMSPPFRPVEHQEALWRGLQSGNLHTTATDHCCFCAEQKAMGRDDFSKIPNGTAGIEDRMALLWDAGVNSGRLSMHEFVALTSTNTAKIFNLFPRKGAIRVGADADLVLWDPQGSRTLSAATHHQRVDFNIFEGRTVRGIPSHTISQGKLLWAAGDLRAEPGAGRYVERPAYPSVYEVLGRRAERQRPVAVER
# modifications: carbamylated Lys150 (Kcx150)
# notes: dihydropyrimidinase of Pseudomonas aeruginosa (PaDHPase), wild type; Binuclear Zn centre (Znα, Znβ) in each monomer; also called PaDHPase; DHPase
# Biological target: the molecule itself
# Assay: crystal structure; hanging drop vapor diffusion, room temperature, 16% PEG 8000, 100 mM HEPES, 200 mM calcium acetate, 200 μM 5-AU, pH 7.5; two monomers in the asymmetric unit
protein,measurement,value
B1,binding result,binds

# From paper PMC8860565, “Molecular Insights into How the Dimetal Center in Dihydropyrimidinase Can Bind the Thymine Antagonist 5-Aminouracil: A Different Binding Mode from the Anticancer Drug 5-Fluorouracil” (Bioinorganic Chemistry and Applications, 2022)
